This series concerns HIS-GST-cERCC1 (ERCC1 central domain) (Homo sapiens). The series can be described thus: EMSA. A general note: Mobility shift assays separate free from complexed probe on a gel.

As usually defined, the Kd is the concentration at which binding is half-saturated. High values mean a looser complex, low ones a tighter complex. As for “b10 (bubble10, dsDNA with 10 unpaired bases)”, the Kd came to 2.5 µM.

Values taken from publication PMC2034474.
